The test addresses recombinant erythropoietin receptor (EPOR-Fc). Description: SPR; Epo 3 peptide ionically bound to the chip, soluble recombinant EPOR-Fc as analyte; three independent experiments.

Results on 1 molecule are retold here after patent US20090197801A1.

Sequence of recombinant erythropoietin receptor (EPOR-Fc) (P19235 25-250): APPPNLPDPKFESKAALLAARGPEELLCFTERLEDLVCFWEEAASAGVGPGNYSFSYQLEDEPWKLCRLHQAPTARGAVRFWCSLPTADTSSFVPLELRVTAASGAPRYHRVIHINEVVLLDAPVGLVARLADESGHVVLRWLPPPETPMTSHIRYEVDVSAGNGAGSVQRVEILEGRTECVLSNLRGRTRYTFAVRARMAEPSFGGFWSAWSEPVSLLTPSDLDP

By Kd is commonly meant the equilibrium constant for the complex coming apart. Regarding QLHVDKAVSGLRSLTTLLRA [Epo3 peptide (Epo-peptide 3)], the dissociation constant (Kd) was 4.48 nM.
